# No end group written: not given here. *: point of attachment. Biotin = O=C1N[C@H]2[C@H](CS[C@H]2CCCCC(=O)*)N1
# T1: Human PPARδ-LBD (amino acids 170–441), amino-terminal His-tagged (human, UniProt Q03181 170-441)
# T1 construct: Form used in the FRET assays; also called hPPARδ-LBD; PPARβ; source: Rosetta (DE3) pLysS cells, pET28a, purified (TALON, HiTrap Q, Superdex 75); not shown: His tag, N-terminal, kept
# T1 sequence (looked up): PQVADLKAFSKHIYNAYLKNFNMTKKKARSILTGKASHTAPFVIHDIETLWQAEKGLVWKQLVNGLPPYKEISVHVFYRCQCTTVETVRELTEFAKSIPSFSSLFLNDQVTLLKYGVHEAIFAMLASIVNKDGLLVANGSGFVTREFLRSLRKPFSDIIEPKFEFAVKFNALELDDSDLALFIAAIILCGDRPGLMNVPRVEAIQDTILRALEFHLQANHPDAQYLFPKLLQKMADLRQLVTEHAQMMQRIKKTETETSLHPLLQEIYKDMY
# T2: Human PPARα-LBD (amino acids 200–468), amino-terminal His-tagged (human, UniProt Q07869 200-468)
# T2 construct: Form used in the FRET assays; detected through the His tag with a Tb cryptate anti-6×His antibody; Routine preparations hold intrinsic fatty acids; also called hPPARα-LBD; NR1C1; source: Rosetta (DE3) pLysS cells, pET28a, purified (TALON, HiTrap Q, Superdex 75); not shown: His tag, N-terminal, kept
# T2 sequence (looked up): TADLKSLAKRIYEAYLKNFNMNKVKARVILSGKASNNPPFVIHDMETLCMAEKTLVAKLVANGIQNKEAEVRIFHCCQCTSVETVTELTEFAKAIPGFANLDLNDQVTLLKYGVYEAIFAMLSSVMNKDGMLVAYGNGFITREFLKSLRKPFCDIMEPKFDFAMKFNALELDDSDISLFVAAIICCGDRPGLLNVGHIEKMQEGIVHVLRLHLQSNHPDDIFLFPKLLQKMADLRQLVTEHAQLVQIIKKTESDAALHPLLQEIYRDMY
# T3: Human PPARγ-LBD (amino acids 203–477 in isoform 1), amino-terminal His-tagged (human, UniProt P37231-2 203-477)
# T3 construct: numbers count on: isoform 1; Form used in the FRET assays; mainly prepared as apo (unliganded) form; also called hPPARγ-LBD; NR1C3; source: Rosetta (DE3) pLysS cells, pET28a, purified (TALON, HiTrap Q, Superdex 75); not shown: His tag, N-terminal, kept
# T3 sequence (looked up): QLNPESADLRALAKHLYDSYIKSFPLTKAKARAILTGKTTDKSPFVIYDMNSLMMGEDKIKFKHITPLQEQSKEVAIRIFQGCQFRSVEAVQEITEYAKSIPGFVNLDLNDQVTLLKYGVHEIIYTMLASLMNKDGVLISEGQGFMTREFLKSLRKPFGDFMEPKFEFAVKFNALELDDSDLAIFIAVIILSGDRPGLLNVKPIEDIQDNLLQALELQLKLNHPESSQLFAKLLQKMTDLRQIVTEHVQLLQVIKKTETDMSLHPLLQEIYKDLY
# B1: PGC1α coactivator peptide, biotin-labeled (AAs 137–155) (peptide)
# peptide: Biotin-EAEEPSLLKKLLLAPANTQ
# notes: also called ULight-PGC1α; source: synthetic peptide (GenScript)
# B2: NCoR2 corepressor peptide, biotin-labeled (AAs 2321–2341) (peptide)
# peptide: Biotin-EHASTNMGLEAIIRKALMGKY
# notes: NCoR2 (nuclear receptor corepressor 2, SMRT), human, AAs 2321–2341, LXXXIXXXL motif LEAIIRKAL; also called ULight-NCoR2; SMRT; source: synthetic peptide (GenScript)
# B3: TRAP220 coactivator peptide, biotin-labeled (AAs 631–655) (peptide)
# peptide: Biotin-PVSSMAGNTKNHPMLMNLLKDNPAQ
# notes: thyroid hormone receptor-associated protein 220 (TRAP220), human, AAs 631–655, LXXLL motif LMNLL; also called ULight-TRAP220; ULight-TRAP; source: synthetic peptide (GenScript)
# B4: NCoR1 corepressor peptide, biotin-labeled (AAs 2255–2275) (peptide)
# peptide: Biotin-ADPASNLGLEDIIRKALMGSF
# notes: NCoR1 (nuclear receptor corepressor 1), human, AAs 2255–2275, LXXXIXXXL motif LEDIIRKAL; also called ULight-NCoR1; N-CoR ID2; source: synthetic peptide (GenScript)
# B5: CBP coactivator peptide, biotin-labeled (AAs 56–80) (peptide)
# peptide: Biotin-SGNLVPDAASKHKQLSELLRGGSGS
# notes: also called ULight-CBP; source: synthetic peptide (GenScript)
# B6: SRC1 coactivator peptide, biotin-labeled (AAs 676–700) (peptide)
# peptide: Biotin-CPSSHSSLTERHKILHRLLQEGSPS
# notes: also called ULight-SRC1; SRC-1 M2; source: synthetic peptide (GenScript)
# Key:
# Settings in all cases: both partners purified
# [1] = molecular target: T1, Human PPARδ-LBD (amino acids 170–441), …; test: FRET or BRET; single-emission TR-FRET as a1, with the agonist titrated (pemafibrate for PPARα-LBD, seladelpar for PPARδ-LBD, pioglitazone for PPARγ-LBD); signal ratios normalised to 1% DMSO
# [2] = molecular target: T2, Human PPARα-LBD (amino acids 200–468), …; test: as above
# [3] = molecular target: T1, Human PPARδ-LBD (amino acids 170–441), …; test: FRET or BRET; dual-emission TR-FRET: a FITC-coactivator peptide and a ULight-coactivator peptide together in one well with the His-tagged LBD and Tb anti-6×His antibody; agonist titrated (pemafibrate, seladelpar or pioglitazone); buffer A, room temperature
# [4] = molecular target: T2, Human PPARα-LBD (amino acids 200–468), …; test: as above
# [5] = molecular target: T1, Human PPARδ-LBD (amino acids 170–441), …; test: FRET or BRET; dual-emission TR-FRET: ULight-corepressor peptide and FITC-coactivator peptide together in one well with the His-tagged LBD and Tb anti-6×His antibody; agonist titrated from vehicle (pemafibrate, seladelpar or pioglitazone); buffer A, room temperature
# [6] = molecular target: T3, Human PPARγ-LBD (amino acids 203–477 in …); test: FRET or BRET; single-emission TR-FRET (LANCE Ultra); His-tagged LBD (9.5 µL of 400 nM) with Tb cryptate anti-6×His antibody, biotin peptide (5 µL of 1 µM) with ULight-Streptavidin or FITC-Ahx peptide; buffer A (20 mM HEPES pH 7.4, 150 mM NaCl, 1 mM EDTA, 1 mM DTT, 0.005% Tween 20, 0.1% fatty acid-free BSA); room temperature, 2 h; without agonist (vehicle 1% DMSO)
# [7] = molecular target: T2, Human PPARα-LBD (amino acids 200–468), …; test: as above
# [8] = molecular target: T3, Human PPARγ-LBD (amino acids 203–477 in …); test: FRET or BRET; single-emission TR-FRET as a1, with the agonist titrated (pemafibrate for PPARα-LBD, seladelpar for PPARδ-LBD, pioglitazone for PPARγ-LBD); signal ratios normalised to 1% DMSO
# [9] = molecular target: T3, Human PPARγ-LBD (amino acids 203–477 in …); test: FRET or BRET; dual-emission TR-FRET: a FITC-coactivator peptide and a ULight-coactivator peptide together in one well with the His-tagged LBD and Tb anti-6×His antibody; agonist titrated (pemafibrate, seladelpar or pioglitazone); buffer A, room temperature
# [10] = molecular target: T3, Human PPARγ-LBD (amino acids 203–477 in …); test: FRET or BRET; dual-emission TR-FRET: ULight-corepressor peptide and FITC-coactivator peptide together in one well with the His-tagged LBD and Tb anti-6×His antibody; agonist titrated from vehicle (pemafibrate, seladelpar or pioglitazone); buffer A, room temperature
Binder,EC50 of seladelpar (the ligand is titrated) for recruitment of the peptide [1],EC50 of pemafibrate (the ligand is titrated) for recruitment of the peptide [2],"maximal recruitment in dual-FRET with seladelpar, that of FITC-CBP in the same well taken as 100 [3]","maximal recruitment in dual-FRET with seladelpar, that of FITC-TRAP in the same well taken as 100 [3]","maximal recruitment in dual-FRET with pemafibrate, that of FITC-CBP in the same well taken as 100 [4]","maximal recruitment in dual-FRET with pemafibrate, that of FITC-TRAP in the same well taken as 100 [4]",binding result [5],binding result [6],binding result [7],EC50 of pioglitazone (the ligand is titrated) for recruitment of the peptide [8],"maximal recruitment in dual-FRET with pioglitazone, that of FITC-CBP in the same well taken as 100 [9]","maximal recruitment in dual-FRET with pioglitazone, that of FITC-TRAP in the same well taken as 100 [9]",binding result [10]
B1,48.1 nM,82 nM,359 FITC-CBP = 100,313 FITC-TRAP = 100,108 FITC-CBP = 100,150 FITC-TRAP = 100,,,,,,,
B2,,,,,,,binds,binds,binds,,,,
B3,54.8 nM,130 nM,402 FITC-CBP = 100,108 FITC-TRAP = 100,63.3 FITC-CBP = 100,75.8 FITC-TRAP = 100,,,,1910 nM,107 FITC-CBP = 100,65.8 FITC-TRAP = 100,
B4,,,,,,,binds,,binds,,,,binds
B5,33.2 nM,60.9 nM,508 FITC-CBP = 100,372 FITC-TRAP = 100,431 FITC-CBP = 100,508 FITC-TRAP = 100,,,,637 nM,237 FITC-CBP = 100,295 FITC-TRAP = 100,
B6,53.5 nM,87.8 nM,156 FITC-CBP = 100,55.5 FITC-TRAP = 100,115 FITC-CBP = 100,77 FITC-TRAP = 100,,,,2110 nM,52 FITC-CBP = 100,57.1 FITC-TRAP = 100,

# Reference: article PMC12024163, “Competitive Ligand-Induced Recruitment of Coactivators to Specific PPARα/δ/γ Ligand-Binding Domains Revealed by Dual-Emission FRET and X-Ray Diffraction of Cocrystals” (Antioxidants, 2025)
